In PMC11849937, “Atractylenolide I inhibits angiogenesis and reverses sunitinib resistance in clear cell renal cell carcinoma through ATP6V0D2-mediated autophagic degradation of EPAS1/HIF2α” (Autophagy, 2024):

Target: T1, His-VPS41 (recombinant, bacterial) (UniProt P49754 1-854)
T1 construct: VPS41; The only His-VPS41 plasmid that the methods name is in the vector pGMLV; source: BL21 (Rosetta) bacterial cells, purified (His beads)
T1 sequence (looked up): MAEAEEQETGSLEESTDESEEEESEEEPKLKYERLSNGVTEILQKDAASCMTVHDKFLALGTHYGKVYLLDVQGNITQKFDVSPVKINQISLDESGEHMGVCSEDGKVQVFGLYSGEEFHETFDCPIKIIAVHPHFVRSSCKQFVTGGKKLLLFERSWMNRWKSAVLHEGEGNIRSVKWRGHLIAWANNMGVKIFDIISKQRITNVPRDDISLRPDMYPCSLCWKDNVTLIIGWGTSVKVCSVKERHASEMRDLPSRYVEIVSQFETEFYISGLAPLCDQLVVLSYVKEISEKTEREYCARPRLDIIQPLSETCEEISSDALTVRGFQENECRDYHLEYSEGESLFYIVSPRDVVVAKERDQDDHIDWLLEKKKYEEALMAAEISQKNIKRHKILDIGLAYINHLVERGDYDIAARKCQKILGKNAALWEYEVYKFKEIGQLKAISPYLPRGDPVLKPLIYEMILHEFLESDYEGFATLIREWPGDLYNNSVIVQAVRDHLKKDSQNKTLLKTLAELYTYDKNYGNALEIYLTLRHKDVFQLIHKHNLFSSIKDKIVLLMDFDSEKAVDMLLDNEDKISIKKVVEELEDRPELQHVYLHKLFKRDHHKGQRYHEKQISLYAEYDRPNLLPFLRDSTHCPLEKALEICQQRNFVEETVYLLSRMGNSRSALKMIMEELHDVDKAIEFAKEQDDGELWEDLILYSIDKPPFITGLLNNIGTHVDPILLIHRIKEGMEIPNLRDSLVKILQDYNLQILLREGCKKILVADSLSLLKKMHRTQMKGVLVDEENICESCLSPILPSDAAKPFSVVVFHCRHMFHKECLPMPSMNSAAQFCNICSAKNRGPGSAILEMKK
Assay: pull-down; GST-tagged protein (2.5 ug) immobilised on glutathione-Sepharose beads, incubated with His-RAB7, His-VPS41 or both in affinity-isolation buffer with PMSF; western blot
Details: both partners purified

binding result: binds
B1: GST-tagged ATP6V0D2 (natural protein)
chain: not shown
notes: ATP6V0D2, ATPase H+ transporting V0 subunit d2; Construct bought from Tsingke Biotechnology; also called GST-ATP6V0D2; source: BL21 (Rosetta) bacterial cells, purified (glutathione-Sepharose beads)
